Results taken from patent US20240116985A1, “STAPLED PEPTIDES AND METHODS THEREOF” (priority 2020, published 2024).
Starred links: 1 amine or outer side, 2 acyl side, 3 side chain; linkers in the order of their positions; H or OH if unused. Positions of bridges follow the written chain, without caps; N, C: chain ends. Non-standard residues stand in square brackets, D forms with d. Primed or numbered codes have the meaning given here. PyrS2(3) = (S)-3-amino-1-((pent-4-en-1-yloxy)carbonyl)pyrrolidine-3-carboxylic acid, stapling residue, C=CCCCOC(=O)N1CC[C@@](N[*:1])(C(=O)[*:2])C1; PyrS2″ = (S)-3-amino-1-((pent-4-en-1-yloxy)carbonyl)pyrrolidine-3-carboxylic acid (stapling residue), C=CCCCOC(=O)N1CC[C@@](N[*:1])(C(=O)[*:2])C1; B5(16) = 2-amino-2-(pent-4-en-1-yl)hept-6-enoic acid = 2,2-bis(4-pentenyl)glycine (stitching residue), C=CCCCC(CCCC=C)(N[*:1])C(=O)[*:2]; B5(4) = 2,2-bis(4-pentenyl)glycine = 2-amino-2-(pent-4-en-1-yl)hept-6-enoic acid (stitching residue), C=CCCCC(CCCC=C)(N[*:1])C(=O)[*:2]; B5(5) = 2,2-bis(4-pentenyl)glycine, 2-amino-2-(pent-4-en-1-yl)hept-6-enoic acid (stitching residue), C=CCCCC(CCCC=C)(N[*:1])C(=O)[*:2]; TfeGA = (S)-2-amino-3-((carboxymethyl)(2,2,2-trifluoroethyl)amino)propanoic acid, O=C([C@H](CN(CC(=O)[*:3])CC(F)(F)F)N[*:1])[*:2]; B5(3) = 2,2-bis(4-pentenyl)glycine (stitching residue), C=CCCCC(CCCC=C)(N[*:1])C(=O)[*:2]; B5″ = 2,2-bis(4-pentenyl)glycine, stitching residue, C=CCCCC(CCCC=C)(N[*:1])C(=O)[*:2]; B5 = 2-amino-2-(pent-4-en-1-yl)hept-6-enoic acid, C=CCCCC(CCCC=C)(N[*:1])C(=O)[*:2]; Phe(2-Cl) = N[C@@H](Cc1ccccc1Cl)C(=O)O; Bta = N[C@@H](Cc1csc2ccccc12)C(=O)O; αAllylPro = C=CC[C@@]1(C(=O)O)CCCN1; tBuAla = CC(C)(C)C[C@H](N)C(=O)O; 3Thi = N[C@@H](Cc1ccsc1)C(=O)O; Cha = N[C@@H](CC1CCCCC1)C(=O)O; Cit = NC(=O)NCCC[C@H](N)C(=O)O; S8 = C=CCCCCCC[C@](C)(N)C(=O)O; Leu(ol) = CC(C)C[C@H](N)CO; hSer = N[C@@H](CCO)C(=O)O

target: full-length beta-Catenin (Uniprot ID P35222) (Homo sapiens (Human)) (UniProt P35222); assay: fluorescence polarization competition; peptide titrated against 10 nM full-length beta-catenin + 10 nM 5FAM-TCF4(10-53)
Target sequence in this assay (P35222 2-781 limits assumed): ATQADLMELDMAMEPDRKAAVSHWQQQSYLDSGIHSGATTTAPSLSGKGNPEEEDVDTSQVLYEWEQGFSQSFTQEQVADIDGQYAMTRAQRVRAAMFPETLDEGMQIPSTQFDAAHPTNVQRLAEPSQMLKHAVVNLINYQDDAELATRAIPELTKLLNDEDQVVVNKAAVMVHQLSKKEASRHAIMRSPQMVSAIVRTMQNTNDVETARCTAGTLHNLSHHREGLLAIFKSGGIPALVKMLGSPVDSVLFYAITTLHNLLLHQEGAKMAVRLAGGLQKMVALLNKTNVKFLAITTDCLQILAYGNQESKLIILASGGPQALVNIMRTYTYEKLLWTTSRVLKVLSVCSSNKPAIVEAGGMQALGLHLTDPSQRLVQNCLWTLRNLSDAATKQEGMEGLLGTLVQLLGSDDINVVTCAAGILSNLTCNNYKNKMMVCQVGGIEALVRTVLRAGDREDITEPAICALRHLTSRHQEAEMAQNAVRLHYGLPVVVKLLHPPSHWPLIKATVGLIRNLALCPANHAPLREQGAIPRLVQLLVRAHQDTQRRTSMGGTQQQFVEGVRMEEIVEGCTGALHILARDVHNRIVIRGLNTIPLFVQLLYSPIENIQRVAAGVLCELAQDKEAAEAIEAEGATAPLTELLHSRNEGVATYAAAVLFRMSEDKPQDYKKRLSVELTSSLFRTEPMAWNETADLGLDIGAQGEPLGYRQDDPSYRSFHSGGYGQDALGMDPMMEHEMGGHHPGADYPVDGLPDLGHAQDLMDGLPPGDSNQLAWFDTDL

Row | Binder | IC50 [nM]
1 | Ac-[αAllylPro]D[tBuAla][B5(4)]DDAAFT[S8][Phe(2-Cl)][Bta][dT]-NH2 (staple 1-4, 4-11) [I-1092] | 26
2 | Ac-[αAllylPro]D[tBuAla][B5(4)]DEAAFT[S8][Phe(2-Cl)][Bta]Q-NH2 (staple 1-4, 4-11; also: earlier-eluting isomer composition) [I-1088] | 22
3 | Ac-[αAllylPro]D[tBuAla][B5(4)]DEAAFT[S8][Phe(2-Cl)][Bta]Q-NH2 (staple 1-4, 4-11; also: later-eluting isomer composition) [I-1089] | 12
4 | Ac-[αAllylPro]D[tBuAla][B5(4)]DDAAFT[S8][Phe(2-Cl)][Bta]T-NH2 (staple 1-4, 4-11) [I-1090] | 18
5 | Ac-[αAllylPro]D[tBuAla][B5(4)]DDAAFT[S8][Phe(2-Cl)][Bta]Q-NH2 (staple 1-4, 4-11; also: earlier-eluting HPLC peak staple isomer composition) [I-1086] | 12
6 | Ac-[αAllylPro]D[tBuAla][B5(4)]DEAAFT[S8][Phe(2-Cl)][Bta]T-NH2 (staple 1-4, 4-11) [I-1091] | 27

target: full-length beta-Catenin (Uniprot ID P35222) (Homo sapiens (Human)) (UniProt P35222); assay: fluorescence polarization competition; full-length beta-catenin with 5FAM-TCF4(10-53) probe as competitor
Target sequence in this assay (P35222 whole entry): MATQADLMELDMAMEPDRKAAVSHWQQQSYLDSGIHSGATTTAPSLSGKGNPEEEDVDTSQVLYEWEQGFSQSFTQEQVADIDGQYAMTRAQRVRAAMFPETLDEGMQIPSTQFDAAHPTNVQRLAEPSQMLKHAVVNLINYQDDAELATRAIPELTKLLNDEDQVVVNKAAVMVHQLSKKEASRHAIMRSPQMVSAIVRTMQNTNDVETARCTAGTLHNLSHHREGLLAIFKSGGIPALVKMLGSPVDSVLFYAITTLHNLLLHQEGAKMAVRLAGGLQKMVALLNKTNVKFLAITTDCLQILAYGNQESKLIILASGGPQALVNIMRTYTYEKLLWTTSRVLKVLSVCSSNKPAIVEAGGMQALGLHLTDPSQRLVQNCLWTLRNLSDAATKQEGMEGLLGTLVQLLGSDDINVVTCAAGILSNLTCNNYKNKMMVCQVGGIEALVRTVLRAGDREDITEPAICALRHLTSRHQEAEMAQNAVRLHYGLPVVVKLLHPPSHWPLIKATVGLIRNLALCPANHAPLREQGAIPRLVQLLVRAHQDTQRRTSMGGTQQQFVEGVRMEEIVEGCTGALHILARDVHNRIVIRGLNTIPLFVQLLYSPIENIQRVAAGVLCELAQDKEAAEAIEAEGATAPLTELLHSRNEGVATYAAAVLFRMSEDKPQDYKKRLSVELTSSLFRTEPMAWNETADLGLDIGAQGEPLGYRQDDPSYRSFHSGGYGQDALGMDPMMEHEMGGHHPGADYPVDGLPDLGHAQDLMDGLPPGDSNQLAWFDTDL

Row | Binder | IC50 [nM]
7 | Ac-[αAllylPro]DL[B5(4)]DEAAF[Cit][S8]F[Bta]Q-NH2 (staple 1-4, 4-11) [I-621] | 58
8 | Ac-[αAllylPro]D[Cha][B5(4)]DEAAFN[S8]F[Bta]Q-NH2 (staple 1-4, 4-11; also: earlier-eluting staple isomer) [I-619] | 44
9 | Ac-[αAllylPro]D[Cha][B5]DEAAFN[S8]F[Bta]H-NH2 (staple 1-4, 4-11) [I-615] | 50
10 | Ac-[αAllylPro]D[Cha][B5(16)]DEAAFN[S8]F[Bta]Q-NH2 (staple 1-4, 4-11; also: later-eluting staple isomer composition) [I-620] | 35
11 | Ac-[αAllylPro]DL[B5]DEAAF[Cit][S8]F[Bta]H-NH2 (staple 1-4, 4-11) [I-616] | 108

target: full-length beta-Catenin (Uniprot ID P35222) (Homo sapiens (Human)) (UniProt P35222); assay: fluorescence polarization competition; peptide titrated against 10 nM full-length beta-catenin + 10 nM 5FAM-TCF4(10-53) probe
Target sequence in this assay (P35222 whole entry): as above

Row | Binder | EC50 [nM]
12 | Ac-[αAllylPro]DL[B5(4)]DEAAF[Cit][S8]F[Bta]Q-NH2 (staple 1-4, 4-11) [I-621] | 58
13 | Ac-[αAllylPro]D[Cha][B5(4)]DEAAFN[S8]F[Bta]Q-NH2 (staple 1-4, 4-11; also: earlier-eluting staple isomer) [I-619] | 44
14 | Ac-[αAllylPro]D[Cha][B5]DEAAFN[S8]F[Bta]H-NH2 (staple 1-4, 4-11) [I-615] | 50
15 | Ac-[αAllylPro]D[Cha][B5(16)]DEAAFN[S8]F[Bta]Q-NH2 (staple 1-4, 4-11; also: later-eluting staple isomer composition) [I-620] | 35
16 | Ac-[αAllylPro]DL[B5]DEAAF[Cit][S8]F[Bta]H-NH2 (staple 1-4, 4-11) [I-616] | 108

target: full-length beta-Catenin (Uniprot ID P35222) (Homo sapiens (Human)) (UniProt P35222); assay: fluorescence polarization competition; full-length beta-catenin, 5FAM-TCF4(10-53) probe as competitor
Target sequence in this assay (P35222 2-781 limits assumed): as the sequence (P35222 2-781 limits assumed) above

Row | Binder | IC50 [nM]
17 | Ac-[αAllylPro]L[tBuAla][B5(5)]DDAAFN[PyrS2″][3Thi][Bta]Q-NH2 (staple 1-4, 4-11) [I-1226] | 559
18 | Ac-[αAllylPro][hSer][tBuAla][B5(5)]DDAAFN[PyrS2″][3Thi][Bta]Q-NH2 (staple 1-4, 4-11) [I-1228] | 100
19 | Ac-[αAllylPro][hSer][tBuAla][B5(5)]DDAAFL[PyrS2″][3Thi][Bta]Q-NH2 (staple 1-4, 4-11) [I-1229] | 134
20 | Ac-[αAllylPro]D[tBuAla][B5(4)]D[TfeGA]AAFT[PyrS2″][Phe(2-Cl)][Bta][Leu(ol)] (staple 1-4, 4-11) [I-1243] | 82

target: full-length beta-Catenin (Uniprot ID P35222) (Homo sapiens (Human)) (UniProt P35222); assay: FP competition: displacement of 5FAM-TCF4(10-53) from full-length beta-catenin
Target sequence in this assay (P35222 whole entry): as the sequence (P35222 whole entry) above

Row | Binder | EC50 [nM]
21 | Ac-[αAllylPro]N[tBuAla][B5(4)]DDAAFL[PyrS2″][3Thi][Bta]Q-NH2 (staple 1-4, 4-11) [I-1221] | 14
22 | Ac-[αAllylPro]Q[tBuAla][B5(5)]DDAAFN[PyrS2″][3Thi][Bta]Q-NH2 (staple 1-4, 4-11) [I-1224] | 389
23 | Ac-[αAllylPro]S[tBuAla][B5(5)]DDAAFN[PyrS2″][3Thi][Bta]Q-NH2 (staple 1-4, 4-11) [I-1222] | 511
24 | Ac-[αAllylPro]D[tBuAla][B5(5)]SDAAFL[PyrS2″][3Thi][Bta]Q-NH2 (staple 1-4, 4-11) [I-1209] | 479
25 | Ac-[αAllylPro]L[tBuAla][B5(5)]DDAAFN[PyrS2″][3Thi][Bta]Q-NH2 (staple 1-4, 4-11) [I-1226] | 559
26 | Ac-[αAllylPro][hSer][tBuAla][B5(5)]DDAAFN[PyrS2″][3Thi][Bta]Q-NH2 (staple 1-4, 4-11) [I-1228] | 100
27 | Ac-[αAllylPro][hSer][tBuAla][B5(5)]DDAAFL[PyrS2″][3Thi][Bta]Q-NH2 (staple 1-4, 4-11) [I-1229] | 134
28 | Ac-[αAllylPro]D[tBuAla][B5″]NDAAFL[PyrS2(3)][3Thi][Bta]Q-NH2 (staple 1-4, 4-11) [I-1207] | 40
29 | Ac-[αAllylPro]D[tBuAla][B5(5)][hSer]DAAFN[PyrS2″][3Thi][Bta]Q-NH2 (staple 1-4, 4-11) [I-1214] | 116
30 | Ac-[αAllylPro]D[tBuAla][B5″]NDAAFN[PyrS2(3)][3Thi][Bta]Q-NH2 (staple 1-4, 4-11) [I-1206] | 32
31 | Ac-[αAllylPro]D[tBuAla][B5(5)]QDAAFL[PyrS2″][3Thi][Bta]Q-NH2 (staple 1-4, 4-11) [I-1211] | 115
32 | Ac-[αAllylPro]S[tBuAla][B5(5)]DDAAFL[PyrS2″][3Thi][Bta]Q-NH2 (staple 1-4, 4-11) [I-1223] | 550
33 | Ac-[αAllylPro]D[tBuAla][B5(4)]D[TfeGA]AAFT[PyrS2″][Phe(2-Cl)][Bta][Leu(ol)] (staple 1-4, 4-11) [I-1243] | 82
34 | Ac-[αAllylPro]D[tBuAla][B5(5)]SDAAFN[PyrS2″][3Thi][Bta]Q-NH2 (staple 1-4, 4-11) [I-1208] | 349
35 | Ac-[αAllylPro]D[tBuAla][B5(5)]QDAAFN[PyrS2″][3Thi][Bta]Q-NH2 (staple 1-4, 4-11) [I-1210] | 56
36 | Ac-[αAllylPro]D[tBuAla][B5(5)]LDAAFN[PyrS2″][3Thi][Bta]Q-NH2 (staple 1-4, 4-11) [I-1212] | 8660
37 | Ac-[αAllylPro]Q[tBuAla][B5(5)]DDAAFL[PyrS2″][3Thi][Bta]Q-NH2 (staple 1-4, 4-11) [I-1225] | 305
38 | Ac-[αAllylPro]D[tBuAla][B5(5)][hSer]DAAFL[PyrS2″][3Thi][Bta]Q-NH2 (staple 1-4, 4-11) [I-1215] | 216

target: full-length beta-Catenin (Uniprot ID P35222) (Homo sapiens (Human)) (UniProt P35222); assay: fluorescence polarization competition; full-length beta-catenin + 5FAM-TCF4(10-53) probe as competitor
Target sequence in this assay (P35222 2-781 limits assumed): as the sequence (P35222 2-781 limits assumed) above

Row | Binder | EC50 [nM]
39 | Ac-[αAllylPro]D[tBuAla][B5(4)]DDAAFT[S8][Phe(2-Cl)][Bta][dT]-NH2 (staple 1-4, 4-11) [I-1092] | 26
40 | Ac-[αAllylPro]D[tBuAla][B5(4)]DEAAFT[S8][Phe(2-Cl)][Bta]Q-NH2 (staple 1-4, 4-11; also: earlier-eluting isomer composition) [I-1088] | 22
41 | Ac-[αAllylPro]D[tBuAla][B5(4)]DEAAFT[S8][Phe(2-Cl)][Bta]Q-NH2 (staple 1-4, 4-11; also: later-eluting isomer composition) [I-1089] | 12
42 | Ac-[αAllylPro]D[tBuAla][B5(4)]DDAAFT[S8][Phe(2-Cl)][Bta]T-NH2 (staple 1-4, 4-11) [I-1090] | 18
43 | Ac-[αAllylPro]D[tBuAla][B5(4)]DDAAFT[S8][Phe(2-Cl)][Bta]Q-NH2 (staple 1-4, 4-11; also: earlier-eluting HPLC peak staple isomer composition) [I-1086] | 12
44 | Ac-[αAllylPro]D[tBuAla][B5(4)]DEAAFT[S8][Phe(2-Cl)][Bta]T-NH2 (staple 1-4, 4-11) [I-1091] | 27
